# According to the RNAGym collection of RNA variant scans (doi:10.7554/elife.80360):
# B1: Hairpin Ribozyme (parent)
# chain: GUCCUCUUUCACGUGCGCGUGAAAGAGAGAAGUGAACCAGAGAAACACACGUUGUGGUAUAUUACCUGGUA
# Variants of: B1
# Test: self-cleavage, relative activity (ratio to wild type); higher = more cleavage; co-transcriptional
row,Variant,self-cleavage
1,GUCCUCUUUCACGUGCGCGUGAAAGAGAGAAGUGAACCAGAGUAACACACGUUGAGGUAUAUUACCUGGUA [A43U U55A],0.129
2,GUCCUCUUUCACGUGCGCGUGAAAGAGAGAAGUGAACCAGAGACACACACGUUGUGGUAUAUUACCAGGUA [A44C U67A],0.113
3,GUCCUCUUUCACGUGCGCGUGAAAGAGAGAAGUGAACCAGAGACACACAAGUUGUGGUAUAUUACCUGGUA [A44C C50A],0.0943
4,GUCCUCUUUCACGUGCGCGUGAAAGAGAGAAGUGAACCAGAGACACACACUUUGUGGUAUAUUACCUGGUA [A44C G51U],0.114
5,GUCCUCUUUCACGUGCGCGUGAAAGAGAGAAGUGAACCAGAGACACACACAUUGUGGUAUAUUACCUGGUA [A44C G51A],0.0817
6,GUCCUCUUUCACGUGCGCGUGAAAGAGAGAAGUGAACCAGAGUAACACAGGUUGUGGUAUAUUACCUGGUA [A43U C50G],0.107
7,GUCCUCUUUCACGUGCGCGUGAAAGAGAGAAGUGAACCAGAGUAACACAUGUUGUGGUAUAUUACCUGGUA [A43U C50U],0.116
8,GUCCUCUUUCACGUGCGCGUGAAAGAGAGAAGUGAACCAGAGUAACACUCGUUGUGGUAUAUUACCUGGUA [A43U A49U],0.27
9,GUCCUCUUUCACGUGCGCGUGAAAGAGAGAAGUGAACCAGAGGAACACACGUUGUGGUAUAUUACCUGCUA [A43G G69C],0.268
10,GUCCUCUUUCACGUGCGCGUGAAAGAGAGAAGUGAACCAGAGGAACACACGUUGUGGCAUAUUACCUGGUA [A43G U58C],0.12
11,GUCCUCUUUCACGUGCGCGUGAAAGAGAGAAGUGAACCAGAGGAACACACGUUGUGGGAUAUUACCUGGUA [A43G U58G],0.212
12,GUCCUCUUUCACGUGCGCGUGAAAGAGAGAAGUGAACCAGAGAGACACUCGUUGUGGUAUAUUACCUGGUA [A44G A49U],0.0347
13,GUCCUCUUUCACGUGCGCGUGAAAGAGAGAAGUGAACCAGAGACGCACACGUUGUGGUAUAUUACCUGGUA [A44C A45G],0.208
14,GUCCUCUUUCACGUGCGCGUGAAAGAGAGAAGUGAACCAGAGACACACACGUAGUGGUAUAUUACCUGGUA [A44C U53A],0.186
15,GUCCUCUUUCACGUGCGCGUGAAAGAGAGAAGUGAACCAGAGACACACACGUCGUGGUAUAUUACCUGGUA [A44C U53C],0.108
16,GUCCUCUUUCACGUGCGCGUGAAAGAGAGAAGUGAACCAGAGACACACACGUUGUGGUAUAUAACCUGGUA [A44C U63A],0.128
17,GUCCUCUUUCACGUGCGCGUGAAAGAGAGAAGUGAACCAGAGACACACACGUUGUGGUAUAUCACCUGGUA [A44C U63C],0.172
18,GUCCUCUUUCACGUGCGCGUGAAAGAGAGAAGUGAACCAGAGACACACACGUUGUGGUAUAUUACCUGGUU [A44C A71U],0.152
19,GUCCUCUUUCACGUGCGCGUGAAAGAGAGAAGUGAACCAGAGUAACACACGUUGUGGGAUAUUACCUGGUA [A43U U58G],0.0898

row,Variant,self-cleavage
1,GUCCUCUUUCACGUGCGCGUGAAAGAGAGAAGUGAACCAGAGUAACACACGUUGUGGAAUAUUACCUGGUA [A43U U58A],0.0678
2,GUCCUCUUUCACGUGCGCGUGAAAGAGAGAAGUGAACCAGAGGAACACACGUUGUGGUAAAUUACCUGGUA [A43G U60A],0.202
3,GUCCUCUUUCACGUGCGCGUGAAAGAGAGAAGUGAACCAGAGGAACACACGUUGUGGUAGAUUACCUGGUA [A43G U60G],0.0362
4,GUCCUCUUUCACGUGCGCGUGAAAGAGAGAAGUGAACCAGAGGAACACACGUUGUGGUAUAUUACCUGGGA [A43G U70G],0.288
5,GUCCUCUUUCACGUGCGCGUGAAAGAGAGAAGUGAACCAGAGGAACACACGUUGUGGUAUAUUACCUGGCA [A43G U70C],0.19
6,GUCCUCUUUCACGUGCGCGUGAAAGAGAGAAGUGAACCAGAGGAACACACGUUGUGGUAUAUUACCUGGAA [A43G U70A],0.225
7,GUCCUCUUUCACGUGCGCGUGAAAGAGAGAAGUGAACCAGAGACACACACGUUGUGGUAUGUUACCUGGUA [A44C A61G],0.115
8,GUCCUCUUUCACGUGCGCGUGAAAGAGAGAAGUGAACCAGAGACACACACGUUGUGGUAUAGUACCUGGUA [A44C U62G],0.304
9,GUCCUCUUUCACGUGCGCGUGAAAGAGAGAAGUGAACCAGAGAGACACACGUUGUGGUAUGUUACCUGGUA [A44G A61G],0.152
10,GUCCUCUUUCACGUGCGCGUGAAAGAGAGAAGUGAACCAGAGAGACACACGUUGUGGUAUCUUACCUGGUA [A44G A61C],0.0999
11,GUCCUCUUUCACGUGCGCGUGAAAGAGAGAAGUGAACCAGAGAGACACACGUUGUGGUAUUUUACCUGGUA [A44G A61U],0.189
12,GUCCUCUUUCACGUGCGCGUGAAAGAGAGAAGUGAACCAGAGUAACACACGUUGUGGUAUAUUACCUUGUA [A43U G68U],0.223
13,GUCCUCUUUCACGUGCGCGUGAAAGAGAGAAGUGAACCAGAGUAACACACGUUGUGGUAUAUUACCUAGUA [A43U G68A],0.0877
14,GUCCUCUUUCACGUGCGCGUGAAAGAGAGAAGUGAACCAGAGACACACACGGUGUGGUAUAUUACCUGGUA [A44C U52G],0.203
15,GUCCUCUUUCACGUGCGCGUGAAAGAGAGAAGUGAACCAGAGUAAGACACGUUGUGGUAUAUUACCUGGUA [A43U C46G],0.0741
16,GUCCUCUUUCACGUGCGCGUGAAAGAGAGAAGUGAACCAGAGUAAAACACGUUGUGGUAUAUUACCUGGUA [A43U C46A],0.0823
17,GUCCUCUUUCACGUGCGCGUGAAAGAGAGAAGUGAACCAGAGUAACACACGUUGUGGUAUAUAACCUGGUA [A43U U63A],0.107
18,GUCCUCUUUCACGUGCGCGUGAAAGAGAGAAGUGAACCAGAGUAACACACGUUGUGGUAUAUCACCUGGUA [A43U U63C],0.219
19,GUCCUCUUUCACGUGCGCGUGAAAGAGAGAAGUGAACCAGAGGAACACACGUUGUGGUAUAUAACCUGGUA [A43G U63A],0.134
